Test results from patent publication US5624900A, “Peptide or its salts” (Kuraray Co., Ltd., priority 1990, dated 1997).
Non-standard residues stand in square brackets, D forms with d. Nle = CCCC[C@H](N)C(=O)O

target: T1, human IL-1β (Homo sapiens, UniProt P01584); assay: Binding activity for human IL-1: 125I-labelled human IL-1β retained on peptide-immobilized cellulose adsorbent; conditions: radioactivity remaining on 100 mg adsorbent (1 mg peptide fixed per g cellulose) after about 300 Bq 125I-labelled human IL-1β, room temperature 3 hours, 5 washes; γ counter
T1 construct: purchased Amersham Japan
T1 sequence (P01584 117-269): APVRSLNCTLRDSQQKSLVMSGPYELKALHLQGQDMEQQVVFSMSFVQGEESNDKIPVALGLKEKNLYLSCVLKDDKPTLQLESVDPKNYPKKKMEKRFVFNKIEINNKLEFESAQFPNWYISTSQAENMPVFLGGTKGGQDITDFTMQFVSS
Description: Adsorbents each having fixed 1 mg of one of the peptides obtained in Examples 1 through 15 and the Comparative Example were prepared as follows. One gram of a granular cellulose (CM-CELLULOFINE CH, available from Seikagaku Kogyo Co., Ltd.) is suspended in 5 ml of dioxane purified by distillation in the presence of sodium metal. To the suspension thus obtained was added 0.05 g of N-hydroxysuccinimide and 0.1 g of dicyclohexylcarbodimide, and the mixture was shaken at a room temperature for 1 night. The mixture thus obtained was washed with a 0.02 mole/l phosphate buffer (pH: 7.4) and then filtered with suction. The granules thus obtained were mixed with 1 ml of 0.02 mol/l phosphate buffer or purified water containing 1 mg of each one of the peptides obtained in Examples 1 through 15 and the Comparative Example. The mixtures were shaken overnight at a temperature of 4° C. and filtered with suction.
From the thus prepared adsorbents, 100 mg each was weighed, and thereto was added 100 μl of 5% solution of bovine serum albumin in PBS (a 10 mM phosphate buffer solution containing 0.15M NaCl, pH: 7.4). The mixtures were incubated overnight at 4° C., then about 300 Bq of ^125 I-labelled human IL-1β (purchased from Amersham Japan) was added to them and the mixtures were incubated at a room temperature for 3 hours. The reaction mixtures thus obtained were washed 5 times with Tris buffer containing 0.2% of Triton X-100 and then tested for radioactivity remaining on the adsorbents with a γ counter.

Row | Compound | Radioactivity (cpm)
1 | H-CLRIKIS-OH [Example 6] | 815
2 | H-Lys-Ile-Cys-Ile-Arg-Ile-Gln-Ile-Ser-NH2 (H-KICIRIQIS-NH2) [Example 15] | 1427
3 | H-Lys-Cys-Leu-Arg-Ile-Lys-Ile-Ser-OH (H-KCLRIKIS-OH) [Example 7] | 576
4 | H-Lys-Asn-Ser-Ser-Tyr-Cys-Leu-Arg-Ile-Lys-Ile-Ser-Ala-Lys-Phe-Val-Glu-OH (H-KNSSYCLRIKISAKFVE-OH) [Example 2] | 764
5 | H-Tyr-Cys-Leu-Arg-Ile-Lys-Ile-Ser-OH (H-YCLRIKIS-OH) [Example 5] | 840
6 | H-Lys-Ile-Cys-Ile-Arg-Ile-Gln-Ile-Ser-OH (H-KICIRIQIS-OH) [Example 10] | 1373
7 | H-Tyr-Ser-Leu-Glu-Ile-Lys-Ile-Ser-OH (H-YSLEIKIS-OH) [Comparative Example, reference compound] | 84
8 | H-Tyr-Cys-Leu-Arg-Ile-Lys-Ile-Ser-Ala-Lys-OH (H-YCLRIKISAK-OH) [Example 4] | 891
9 | H-Lys-Ile-Cys-Ile-His-Ile-Gln-Ile-Ser-OH (H-KICIHIQIS-OH) [Example 12] | 1167
10 | H-Val-Val-Arg-Asn-Ser-Ser-Tyr-Cys-Leu-Arg-Ile-Lys-Ile-Ser-Ala-Lys-OH (H-VVRNSSYCLRIKISAK-OH) [Example 1] | 922
11 | H-K[Nle]C[Nle]R[Nle]Q[Nle]S-OH [Example 11] | 1292
12 | H-Lys-Cys-Val-Gln-Val-Gln-Val-Ser-OH (H-KCVQVQVS-OH) [Example 14] | 890
13 | NCC(=O)O [Reference Example, glycine, reference compound] | 45
14 | H-Lys-Tyr-Cys-Leu-Arg-Ile-Lys-Ile-Ser-Ala-Lys-Phe-Val-Glu-Asn-Glu-Pro-OH (H-KYCLRIKISAKFVENEP-OH) [Example 3] | 1171
15 | H-Lys-Ile-Cys-Leu-Arg-Ile-Gln-Ile-Ser-OH (H-KICLRIQIS-OH) [Example 13] | 1245
16 | H-Lys-Cys-Leu-Gln-Ile-Gln-Ile-Ser-OH (H-KCLQIQIS-OH) [Example 9] | 1100
17 | H-Cys-Leu-Gln-Ile-Lys-Ile-Ser-OH (H-CLQIKIS-OH) [Example 8] | 678
